Here are results for three molecules from patent US20230212319A1, “NOVEL ANTIGEN BINDING DOMAINS AND SYNTHETIC ANTIGEN RECEPTORS INCORPORATING THE SAME” (University of Southern California, priority 2020, published 2023).

Common to all, as to assay type: cell-based
The test system of assay [1] is L428 cells. Kind of assay: JNG assay, co-culture with L428 cells. The following applies: L428 cells (CD123+), only in the presence of SAR adaptor bc40-p26-CD123-cg06 (SEQ ID NO: 23120). How it is done:
(§1) Cellular supernatant is collected and assayed for the induction of cytokines (e.g., IL2).
(§2) JNG (Jurkat cells expressing EGFP under an NFAT promoter) were infected with lentiviral vectors encoding different single chain and multi-chain SARs by spinfection in the presence of 8 µg/ml of Polybrene® (Sigma, Catalog no. H9268). The Jurkat-NFAT-GFP cells are engineered in such a way that the IL-2 promoter, which carries NFAT binding sites, is cloned upstream of the GFP gene. These cells have been used to study signaling via TCR and CAR. The different SARs were stably expressed in Jurkat NFAT-GFP cells by lentiviral mediated gene transfer, followed by selection with puromycin or blasticidin. No drug selection was used in case the construct lacked an antibiotic resistance gene. The SAR-expressing Jurkat-NFAT-GFP cells were cocultured with the target cells at E:T ratio of approximately 1:2 for approximately 4 hours to 18 hours. When the interaction between SIRs and their target antigen results in activation of the NFAT pathway, GFP expression is induced. […] GFP expression was monitored by FACS analysis. The Jurkat-NFAT-GFP (parental) cells were used as control. The structure of different constructs can be determined based on their names. […] The sequence of the other constructs in the table can be similarly determined from their names and by referring to the different Tables of this disclosure that provide the names and SEQ ID NO of the different modules. Alternatively, the composition and modular architecture of the different SAR constructs can be determined from their sequences by bioinformatics tools, including using nucleic acid and amino acids homology searches. […] The signs +/-, +, 2+ etc. after the name of the cell lines indicate the relative degree of positivity on the Jurkat-NFAT-GFP assay as measured by the % GFP positive cells after culture of the SAR expressing Jurkat-NFAT-GFP cells with that cell line above the % GFP cells observed in parental Jurkat NFAT-GFP cells serving as controls. […]

The test system of assay [2] is RAJI cells. The assay can be described thus: JNG assay, co-culture with RAJI cells. In short, it runs like this:
(§3)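 Jurkat NFAT-GFP (JNG) cells stably transduced with SARs by lentivirus, with drug selection where the construct carried a resistance gene, then co-cultured with target cells at E:T ~1:2 for ~4–18 h. % GFP-positive cells measured by FACS against parental JNG; +/- to 5+ correspond to ~5–50% GFP-positive.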

Assay [3] concerns Nalm6 cells. The assay can be described thus: JNG assay, co-culture with Nalm6 cells. Conditions: co-culture with Nalm6 cells. In outline: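 Drug-selected populations of SAR-expressing Jurkat-NFAT-GFP cells meet target cells (about 1:2 E:T) for roughly 4–18 h. Flow cytometry gives % GFP+ cells, graded +/- to 5+ (≈5% to ≈50%) relative to the parental control.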
The test system of assay [4] is HEL 92.1.7 cells. Kind of assay: JNG assay, co-culture with HEL 92.1.7 cells. The protocol:
as §1, §2

Assay [5] concerns L363 cells. The assay can be described thus: JNG assay, co-culture with L363 cells. The following applies: co-culture with L363. In short, it runs like this:
as §3

The test system of assay [6] is U266 cells. Kind of assay: JNG NFAT-GFP induction on co-culture with U266.

B1: SEQ ID NO: 22292: D domain (Afo3) binding a p26 domain, attached to the N-terminus of the vL fragment of a hu-mROO5-1 based SIR (protein)
chain: MALPVTALLLPLALLLHAARPACMGSWFEFYDRLNAIDARLWALGGSEAELAAFEKEIAAFESELQAYKGKGNPEVENLRVHAAAIREWLQAYRHNGTGGGGSGGGGSGGGGSEFDIQMTQSPSSLSASVGDRVTITCKASDHINNWLAWYQQKPGQAPKLLIYGATTLETGVPSRFSGSGSGTDYTLTISSLQPEDFATYYCQQSWNTPWTFGQGTKLEIKRLEDLKNVFPPEVAVFEPSEAEISHTQKATLVCLATGFYPDHVELSWWVNGKEVHSGVCTDPQPLKEQPALNDSRYCLSSRLRVSATFWQNPRNHFRCQVQFYGLSENDEWTQDRAKPVTQIVSAEAWGRADCGFTSESYQQGVLSATILYEILLGKATLYAVLVSALVLMAMVKRKDSRGRAKRSGSGATNFSLLKQAGDVEENPGPTSMDWIWRILFLVGAATGAHSFEQVQLQQPGAELVKPGASVKMSCKASGYAFSSYWINWMKQKPGQGLEWIGQIYPGDGDTNYNGKFKGRATLTADTSSSTAYMQLSSLTSEDSAVYFCARSITTVVGCAMDYWGQGTSVTVSSTRIQNPDPAVYQLRDSKSSDKSVCLFTDFDSQTNVSQSKDSDVYITDKCVLDMRSMDFKSNSAVAWSNKSDFACANAFNNSIIPEDTFFPSPESSCDVKLVEKSFETDTNLNFQNLSVIGFRILLLKVAGFNLLMTLRLWSSRAKRSGSGVKQTLNFDLLKLAGDVESNPGPSRGHMTEYKPTVRLATRDDVPRAVRTLAAAFADYPATRHTVDPDRHIERVTELQELFLTRVGLDIGKVWVADDGAAVAVWTTPESVEAGAVFAEIGPRMAELSGSRLAAQQQMEGLLAPHRPKEPAWFLATVGVSPDHQGKGLGSAVVLPGVEAAERAGVPAFLETSAPRNLPFYERLGFTVTADVEVPEGPRTWCMTRKPGA
Take B1: the GFP induction entry in assay [1] was “robust induction of GFP”.

B2: SEQ ID NO: 21975: bispecific SIR: MPL-175 scFv linked to hCD19-Bu12 scFv attached to hTCRα-CSDVP via MYC tag; hTCRβ-KACIAH carries a V5 tag (protein)
chain: MALPVTALLLPLALLLHAARPLEGKPIPNPLLGLDSTGSGEDLKNVFPPEVAVFEPSKAEIAHTQKATLVCLATGFYPDHVELSWWVNGKEVHSGVCTDPQPLKEQPALNDSRYCLSSRLRVSATFWQNPRNHFRCQVQFYGLSENDEWTQDRAKPVTQIVSAEAWGRADCGITSASYHQGVLSATILYEILLGKATLYAVLVSALVLMAMVKRKDSRGRAKRSGSGATNFSLLKQAGDVEENPGPTSMALPVTALLLPLALLLHAARPDQIVLTQSPAIMSASPGEKVTISCSASSSVSYMYWYQQKPGSSPKPWIYRTSNLASGVPARFSGSGSGTSYSLTISNMEAEDAAAYYCQQYHSYPTTFGGGTKLEVKGGGGSGGGGSGGGGSEVQLVESGGGLVQPKGSLKLSCAASGFSFNTYAMNWVRQAPGKGLEWIAHIRSKSNNFATYYADSVKDRFSISRDASENILFLQMNNLKTEDTAMYYCVRQGGDFPMDYWGQGTSVTVSSTREAAAKEIVLTQSPATLSLSPGERATLSCSASSSVSYMHWYQQKPGQAPRLLIYDTSKLASGIPARFSGSGSGTDFTLTISSLEPEDVAVYYCFQGSVYPFTFGQGTKLEIKRGGGGSGGGGSGGGGSQVQLQESGPGLVKPSQTLSLTCTVSGGSISTSGMGVGWIRQHPGKGLEWIGHIWWDDDKRYNPALKSRVTISVDTSKNQFSLKLSSVTAADTAVYYCARMELWSYYFDYWGQGTLVTVSSTREQKLISEEDGSGIQNPDPAVYQLRDSKSSDKSVCLFTDFDSQTNVSQSKDSDVYITDKCVLDMRSMDFKSNSAVAWSNKSDFACANAFNNSIIPEDTFFPSSDVPCDVKLVEKSFETDTNLNFQNLSVIGFRILLLKVAGFNLLMTLRLWSSRAKRSGSGVKQTLNFDLLKLAGDVESNPGPSRGHMTEYKPTVRLATRDDVPRAVRTLAAAFADYPATRHTVDPDRHIERVTELQELFLTRVGLDIGKVWVADDGAAVAVWTTPESVEAGAVFAEIGPRMAELSGSRLAAQQQMEGLLAPHRPKEPAWFLATVGVSPDHQGKGLGSAVVLPGVEAAERAGVPAFLETSAPRNLPFYERLGFTVTADVEVPEGPRTWCMTRKPGA
B2: the “GFP induction / activity” value in assay [2] (co-culture with RAJI cells) and in assay [3] was “only weak activity” in each case. Besides, the GFP induction result in assay [4] (co-culture with MPL expressing HEL 92.1.7 cells) was “marginal GFP induction”.

B3: 22149 (protein)
chain: MALPVTALLLPLALLLHAARPACEVQLLESGGGLIQPGGSLRLSCAASGFTFSSHAMTWVRQAPGKGLEWVSAISGSGDYTHYADSVKGRFTISRDNSKNTVYLQMNSLRAEDSAVYYCAKDEDGGSLLGHRGQGTLVTVSSGTGGGGSGGGGSGGGGSEFDVVMTQSPSSLSASVGDRVTITCMASEDIYIRLAWYQQKPGNAPKLLIYAATSLETGVPSRFSGSGSGTDFTLTISSLQPEDFATYYCQQYWSSPWTFGGGTKVEIKLEGQPKANPTVTLFPPSSEELQANKATLVCLISDFYPGAVTVAWKADGSPVKAGVETTKPSKQSNNKYAASSYLSLTPEQWKSHRSYSCQVTHEGSTVEKTVAPTECSGRADCGFTSESYQQGVLSATILYEILLGKATLYAVLVSALVLMAMVKRKDSRGRAKRSGSGATNFSLLKQAGDVEENPGPTSATMDWIWRILFLVGAATGAHSGPQVQLQESGGGLAQAGGSLRLSCAASGRTFSMGWFRQAPGKEREFVAAITYSGGSPYYASSVRGRFTISRDNAKNTVYLQMNSLKPEDTAVYYCAANPTYGSDWNAENWGQGTQVTVSSGSGGGGSGGGGSGGGGSFEQVQLQESGPGLVKPSQTLSLTCTVSGYSITSDYTWNWIRQPPGNGLEWIGYITYSGSTSYNPSLKSRVLISVDTSKNQVSLKLSSVTAADTAVYYCARLGRRYTMDYWGQGTTVTVSSTRASTKGPSVFPLAPSSKSTSGGTAALGCLVKDYFPEPVTVSWNSGALTSGVHTFPAVLQSSGLYSLSSVVTVPSSSLGTQTYICNVNHKPSNTKVDKRVEPKSCIPEDTFFPSPESSCDVKLVEKSFETDTNLNFQNLSVIGFRILLLKVAGFNLLMTLRLWSSRAKRSGSGVKQTLNFDLLKLAGDVESNPGPSRGHMTEYKPTVRLATRDDVPRAVRTLAAAFADYPATRHTVDPDRHIERVTELQELFLTRVGLDIGKVWVADDGAAVAVWTTPESVEAGAVFAEIGPRMAELSGSRLAAQQQMEGLLAPHRPKEPAWFLATVGVSPDHQGKGLGSAVVLPGVEAAERAGVPAFLETSAPRNLPFYERLGFTVTADVEVPEGPRTWCMTRKPGA
Consider B3, for which, in assay [2] (JNG cells expressing construct, co-culture with Raji), the “NFAT-GFP ASSAY: Raji” value is 3+ (refer to approximately 5%, 10%, 20%, 30%, 40% and 50% GFP positive cells). For the same molecule, the “NFAT-GFP ASSAY: L363” value in assay [5] was “+ (refer to approximately 5%, 10%, 20%, 30%, 40% and 50% GFP positive cells)”. The “NFAT-GFP ASSAY: HEL 92.1.7” value in assay [4] (co-culture with HEL 92.1.7) is “+/- (refer to approximately 5%, 10%, 20%, 30%, 40% and 50% GFP positive cells)”. In addition, the “NFAT-GFP ASSAY: U266” value in assay [6] is 3+ (refer to approximately 5%, 10%, 20%, 30%, 40% and 50% GFP positive cells).
